Data reported in a protein production outcome set (Wang et al. 2014).

Experiment: label from the status in PepcDB records

| Sequence | protein production |
| --- | --- |
| MDHTSPTYMLANLTHLHSEQLLQGLNLLRQHHELCDIILRVGDVKIHAHKVVLASVSPYFKAMFTGNLSEKENSEVEFQCIDETALQAIVEYAYTGTVFISQDTVESLLPAANLLQIKLVLKECCAFLESQLDPGNCIGISRFAETYGCRDLYLAATKYICQNFEAVCQTEEFFELTHADLDEIVSNDCLNVATEETVFYALESWIKYDVQERQKYLAQLLNSVRLPLLSVKFLTRLYEANHLIRDDRTCKHLLNEALKYHFMPEHRLSHQTVLMTRPRCAPKVLCAVGGKSGLFACLDSVEMYFPQNDSWIGLAPLNIPRYEFGICVLDQKVYVIGGIATNVRPGVTIRKHENSVECWNPDTNTWTSLERMNESRSTLGVVVLAGELYALGGYDGQSYLQSVEKYIPKIRKWQPVAPMTTTRSCFAAAVLDGMIYAIGGYGPAHMNSVERYDPSKDSWEMVASMADKRIHFGVGVMLGFIFVVGGHNGVSHLSSIERYDPHQNQWTVCRPMKEPRTGVGAAVIDNYLYVVGGHSGSSYLNTVQKYDPISDTWLDSAGMIYCRCNFGLTAL | failed |
| MIQARSRRPLSCSLRSSSQNPIATTFLTGGKMDRIVRQILVKLLGGERSVYELIYYQDASLREFFELLNSLRDEGLIEVESGKVRITEKGREVAEKERLKFCGDVECECCEGTGLSINPYFKEILQKYSEIAKDRPETIEVYDQGFISLEGVIRRVEFVYDRGDLNGRIFVVGDDDLFGIAASLTGMPEKVAVVDIDERLINFINRVAEEYSLNVEAFVYDVQQAFPDELKRKFDVFVTDPVETIPGLKLFLSRGVSTLKGVGGAGYFGITTLEASRRKWYEIQRMIHDMGFIITDLRRRFNVYPEDEKNFFRFQEKLPIVRHLQAKVDFNWYNSTLFRIEAVKEPKPIVEGEMIIDEKVYKDDESWATPY | failed |
| KSPGWMKHLDQEQAVHSESETYGISSWVYSARLPFHPQRFQHFLAHPWTNGTLLRCKGYIWNAKCYQDIGMLVQTGGQFEWEIVGRWWNFINQSDWPQDHYRRDSIFEKWDERTGDCRQEIVFIGQNIDWNTLKHQLDDCLLTLQEIEDGPEAWLNY | failed |
| MNIPTTTTKGEQAKSQLIAAALAQFGEYGLHATTRDIAALAGQNIAAITYYFGSKEDLYLACAQWIADFLGEKFRPHAEKAERLFSQPAPDRDAIRELILLACKNMIMLLTQEDTVNLSKFISREQLSPTSAYQLVHEQVIDPLHTHLTRLVAAYTGCDANDTRMILHTHALLGEVLAFRLGKETILLRTGWPQFDEEKAELIYQTVTCHIDLILHGLTQRSLD | not failed |
| MLQRTLSSIQIIGGVTQALFILSICLASINPPTEFTMRRTMAMSMRKYSSHSTPRMARIPTTFVVIVLRPTILSGSVGPVITLYIAIKAVPRSTQTPATKTFS | failed |
| MSLASFPVQILPNLYLGSARDSANLESLAKLGIRYILNVTPNLPNFFEKNGDFHYKQIPISDHWSQNLSRFFPEAIEFIDEALSQNCGVLVHSLAGVSRSVTVTVAYLMQKLHLSLNDAYDLVKRKKSNISPNFNFMGQLLDFERSLREGHHHHHH | not failed |
| VMRLVTLRSHDQYNTTIYAMDDRYRGVFGRRDVLFMNEQDMAAQGLEHGDRVDIHTALPGSALTLEDITVVAYGIAPGTVGAYYPEANVLVPLNYLDEESGTPSYKSVPVRLTLRSKEIRPLVGGR | not failed |
| MTDACCLKGNEDKMVPRFGHGTWIGKAFNDTPEMLHERSLRQEKRLERANELMNDDSLQKLETAAMARSRSVDSAPLGNYTIWKNEYRRGKSFEDMLRLMQDQIIMARVYSGLAKFTNNLALHQEIETQLMKLAWEEESTDIDQEQRVLDSIRDMGQILARAHEQLYECKLVTNKLRAMLQTVEDELENEQTYITFLTQLASKALPDAIHCLTMRLNLEYHLLPLPMRNFPRRENLENPKLYHYALFSDNVLAASVVVNSTVMNAQDPSRHVFHLVTDKLNFGAMSMWFLLNPPGEATIHVQRFEDFTWLNSSYSPVLSQLESAAMKKFYFKTARSESVESGSENLKYRYPKYMSMLNHLRFYIPRIFPKLEKILFVDDDVVVQKDLTPLWSIDLKGKVNENFDPKFCGWAYGMNIFDLKEWKKNNITETYHFWQNLNENRTLWKLGTLPPGLITFYNLTQPLQRKWHLLGLGYDKGIDVKKIERSAVIHYNGHMKPWTEMGISKYQPYWTKYTNFDHPYIFTCRLFE | failed |
| MSFWRPRLGLLDASVLSFAVLPTDLDFNRHMTNARYLSLMDLGRLDLILRSGMWRLVLRQSLQPVIGGALVRFRHALRPFQPFRLTTRVLAWDARWLFIEHRVETLDGKPACTAVVRAAFVASTGMLPTADLLTRLGYGGAAPDVPAWIAPWLQADLACQPASPPLENPL | failed |
| MAAVGSGGYARNDAGEKLPSVMAGVPARRGQSSPPPAPPICLRRRTRLSTASEETVQNRVSLEKVLGITAQNSSGLTCDPGTGHVAYLAGCVVVILDPKENKQQHIFNTARKSLSALAFSPDGKYIVTGENGHRPAVRIWDVEEKNQVAEMLGHKYGVACVAFSPNMKHIVSMGYQHDMVLNVWDWKKDIVVASNKVSCRVIALSFSEDSSYFVTVGNRHVRFWFLEVSTETKVTSTVPLVGRSGILGELHNNIFCGVACGRGRMAGSTFCVSYSGLLCQFNEKRVLEKWINLKVSLSSCLCVSQELIFCGCTDGIVRIFQAHSLHYLANLPKPHYLGVDVAQGLEPSFLFHRKAEAVYPDTVALTFDPIHQWLSCVYKDHSIYIWDVKDINRVGKVWSELFHSSYVWNVEVYPEFEDQRACLPSGSFLTCSSDNTIRFWNLDSSPDSHWQKNIFSNLAPALQMCGRGHSRQPNTPSPGEIAS | failed |
| MAETIISLLSPTLDIKSPYYFNPDYLHQFNMHTNTAIDKLSEAKDNYAIWKLRFFDLLQFTNKTGFIDGTLPKPDPSSPYYEPWKQCNAIVLHWLSNTVTDTLQNHVLQAETVHKAWEDLRRIFVPCIDFKIYELRQRLATLRQGGDSVAEYFGKLSKAWLELKAYDPVQECKCGGCDCESEKRATEAREKEQRYAFLMGLNKEFDYVKMKVMHKKIPPSVYQAYEMVVYSEAMMKWKMGGRI | failed |
| MTKSVDTLLIPGPIILSGAVQKALDVPSLGHTSPEFVSIFQRVLKNTRAVFKSAAASKSQPFVLAGSGTLGWDIFASNFILSKAPNKNVLVVSTGTFSDRFADCLRSYGAQVDVVRPLKIGESVPLELITEKLSQNSYGAVTVTHVDTSTAVLSDLKAISQAIKQTSPETFFVVDAVCSIGCEEFEFDEWGVDFALTASQKAIGAPAGLSISLCSSRFMDYALNDSKNGHVHGYFSSLRRWTPIMENYEAGKGAYFATPPVQLINSLDVALKEILEEGLHKRWDLHREMSDWFKDSLVNGLQLTSVSRYPSNMSAHGLTAVYVADPPDVIAFLKSHGVVIAGGIHKDIGPKYIRIGHMGVTACNKNLPYMKNCFDLIKLALQRKK | not failed |
| AIAELTGQRLREGDGPDGPADDGAGAQADLEHSLLVAAEKKDEGPYRMEHFRWGSPPKDKRYGGFMTSEKSQTPLVTLFKNAIIKNAYKKGE | failed |
| TPAVVERADADSQYEILVGGQRAGLTAYRDLGAQRVFFHTEIDEAFAGQGLASQLVQQALVDVRASGMRIVPVCPYVAKFLKRHDEFADITDPVTPEVLRWLEAQL | failed |
| MNIDAVVEFTKKHLKDEKTGHDFYHGQRVANLASKMYLEDHPDAHADSRMVAIIKSGGYLHDTIDEKVCDNPDKVIAEIKELLPEVGFTDLEVWDILFTIQHMSFSANIEHHYHLPLSGQYVQDADRLESLGAMGIARAFTYGGKHGNKIYDPEIKPEKLVSHDQYRNHVETTINHFYEKLFHLADTMNTPAMKKEANRRTEYMHNFVQEFMNEWNVLEHHHHHH | not failed |
| MDWKVFLLRVAVALVLGALIGAERQLRQRLTGLRTNALVSTGACLFVLMTQGVPGLAGDASRIAAYVVSGIGFLGGGVIMRDGLNVRGLNTAATLWCTAAIGVLCSMGLLLEATLGSLVVLCANILLRDIAQRLNRQDVLPASEAEQRYEVQIVCRAEDEIQVRSLMLHSLGSSDLRLQSLHSEDLDNPAKLEVRAELLGTPEAPAQLERLVSRVSLEKGVSSVRWQVFELAAD | failed |
| SSAQFDHVTVIKKSNVYFGGLCISHTVQFEDGTKKTLGVILPTEQPLTFETHVPERMEIISGECRVKIADSTESELFRAGQSFYVPGNSLFKIETDEVLDYVCHLE | failed |
| MSFVAYEELIKEGDTAILSLGHGAMVAVRVQRGAQTQTRHGVLRHSVDLIGRPFGSKVTCGRGGWVYVLHPTPELWTLNLPHRTQILYSTDIALITMMLELRPGSVVCESGTGSGSVSHAIIRTIAPTGHLHTVEFHQQRAEKAREEFQEHRVGRWVTVRTQDVCRSGFGVSHVADAVFLDIPSPWEAVGHAWDALKVEGGRFCSFSPCIEQVQRTCQALAARGFSELSTLEVLPQVYNVRTVSLPPPDLGTGTDGPAGSDTSPFRSGTPMKEAVGHTGYLTFATKTPG | not failed |
| MAASVANCCFSVLNASVKIQSSSISSPWCFVSASSLTPRASSNIKRKSSRSDSPSPILNPEKNYPGRVRDESSNPPQKMAFKAFGSPKKEKKESLSDFSRDQQTDPAKIHDASFLNAVVKVSKSNSLSSLKFTLLAFEPTRASFQVYCTHTAPDYSLPWQKQRQFTSTGSAFMIGDGKLLTNAHCVEHDTQVKVKRRGDDRKYVAKVLVRGVDCDIALLSVESEDFWKGAEPLRLGHLPRLQDSVTVVGYPLGGDTISVTKGVVSRIEVTSYAHGSSDLLGIQIDAAINPGNSGGPAFNDQGECIGVAFQVYRSEETENIGYVIPTTVVSHFLTDYERNGKYTGYPCLGVLLQKLENPALRECLKVPTNEGVLVRRVEPTSDASKVLKEGDVIVSFDDLHVGCEGTVPFRSSERIAFRYLISQKFAGDIAEIGIIRAGEHKKVQVVLRPRVHLVPYHIDGGQPSYIIVAGLVFTPLSEPLIEEECEDTIGLKLLTKARYSVARFRGEQIVILSQVLANEVNIGYEDMNNQQVLKFNGIPIRNIHHLAHLIDMCKDKYLVFEFEDNYVAVLEREASNSASLCILKDYGIPSERSADLLEPYVDPIDDTQALDQGIGDSPVSNLEIGFDGLVWA | failed |
| MQVTADAVPKLNRAAVAAGSADIDAVSGATYTSAGYVKSLQSALDKAAAAAGPAAQESSGADSGSGGGGRSEGDAGQGTQVLTGDAAQTQYGPVQVRVTVSGGRITDVEALQAPKGGRSDQVTADAVPRLNRAAVAAGTADIDAVSGATYTSAGYTQSLQSALDRAGGLEHHHHHH | failed |
| MGRTVVVLGGGISGLAASYHLSRAPCPPKVVLVESSERLGGWIRSVRGPNGAIFELGPRGIRPAGALGARTLLLVSELGLDSEVLPVRGDHPAAQNRFLYVGGALHALPTGLRGLLRPSPPFSKPLFWAGLRELTKPRGKEPDETVHSFAQRRLGPEVASLAMDSLCRGVFAGNSRELSIRSCFPSLFQAEQTHRSILLGLLLGAGRTPQPDSALIRQALAERWSQWSLRGGLEMLPQALETHLTSRGVSVLRGQPVCGLSLQAEGRWKVSLRDSSLEADHVISAIPASVLSELLPAEAAPLARALSAITAVSVAVVNLQYQGAHLPVQGFGHLVPSSEDPGVLGIVYDSVAFPEQDGSPPGLRVTVMLGGSWLQTLEASGCVLSQELFQQRAQEAAATQLGLKEMPSHCLVHLHKNCIPQYTLGHWQKLESARQFLTAHRLPLTLAGASYEGVAVNDCIESGRQAAVSVLGTEPNS | failed |
| DKDNTDEPKETAKALGKLASESKKEILLESAYLIFDDNQLKGWQALINTGVEIKALTNSMASNDLTTNHSGYAGRRQDMLEHGIQLYELKPETELCEESTKDVSKCAPILPYGLHAKSAVFDDKIASIGSFNFNLRSTYLNTESILIIENQKIAEQLTQDIEHAMDEENSWHLKLQEGDVRWYSGDKSWESEPETGRWERFQSGFLQLLPIE | failed |
